Reference: paper PMC11480844 (2024)

B1: H2-Kb / Ed16-1 (parent complex)
chain 1: GEQVEQRPPHLSVREGDSAVITCTYTDPNSYYFFWYKQEPGASLQLLMKVFSSTEINEGQGFTVLLNKKDKRLSLNLTAAHPGDSAAYFCAVSGSNNRIFFGDGTQLVVKP
chain 2: EAAVTQSPRSKVAVTGGKVTLSCHQTNNHDYMYWYRQDTGHGLRLIHYSYVADSTEKGDIPDGYKASRPSQENFSLILELASLSQTAVYFCASRTGTDYTFGSGTRLLVI
chain 3: not shown
chain 4: IQKTPQIQVYSRHPPENGKPNILNCYVTQFHPPHIEIQMLKNGKKIPKVEMSDMSFSKDWSFYILAHTEFTPTETDTYACRVKHDSMAEPKTVYWDRDM
chain 5: SIINFEKL

Variants of: B1
Test: % of reporter cells activated (NFAT-GFP), raw; further: test concentration or dose not given here

| Variant | ratio to parent |
| --- | --- |
| chain 5 N4E | 0.00277 |
| chain 5 N4H | 0.0158 |
| chain 5 N4W | 0.0025 |
| chain 5 N4K | 0.211 |
| chain 5 N4I | 0.0165 |
| chain 5 N4D | 0.0372 |
| chain 5 N4C | 0.00253 |
| chain 5 N4P | 0.0188 |
| chain 5 N4M | 0.000769 |
| chain 5 N4Q | 0.000537 |
| chain 5 N4Y | 0.021 |
| chain 5 N4G | 0.0463 |
| chain 5 N4V | 0.00138 |
| chain 5 N4A | 0.124 |
| chain 5 N4R | 0.19 |
| chain 5 N4S | 0.492 |
| chain 5 N4T | 0.0307 |
| chain 5 N4L | 0.617 |
| chain 5 N4F | 0.0302 |
| chain 5 F5I | 0.96 |
| chain 5 F5N | 0.725 |
| chain 5 F5T | 0.843 |
| chain 5 F5Y | 1.07 |
| chain 5 F5E | 0.742 |
| chain 5 F5C | 0.943 |

| Variant | ratio to parent |
| --- | --- |
| chain 5 F5Q | 0.97 |
| chain 5 F5D | 0.823 |
| chain 5 F5A | 0.976 |
| chain 5 F5V | 0.848 |
| chain 5 F5G | 0.516 |
| chain 5 F5K | 0.803 |
| chain 5 F5P | 0.181 |
| chain 5 F5R | 0.818 |
| chain 5 F5L | 1.02 |
| chain 5 F5M | 1.08 |
| chain 5 F5H | 0.943 |
| chain 5 F5S | 0.917 |
| chain 5 F5W | 0.699 |
| chain 5 S1I | 0.00139 |
| chain 5 S1Q | 0.0527 |
| chain 5 S1W | 0.0447 |
| chain 5 S1T | 0.66 |
| chain 5 S1P | 0.00277 |
| chain 5 S1A | 0.48 |
| chain 5 S1L | 0.00107 |
| chain 5 S1Y | 0.419 |
| chain 5 S1N | 0.0326 |
| chain 5 S1K | 0.038 |
| chain 5 S1H | 0.199 |
| chain 5 S1C | 0.0551 |

| Variant | ratio to parent |
| --- | --- |
| chain 5 S1G | 0.521 |
| chain 5 S1F | 0.0013 |
| chain 5 S1R | 0.0909 |
| chain 5 S1E | 0.0746 |
| chain 5 S1V | 0.0177 |
| chain 5 S1M | 0.0059 |
| chain 5 I2R | 0.651 |
| chain 5 I2A | 1.01 |
| chain 5 I2T | 0.926 |
| chain 5 I2S | 0.94 |
| chain 5 I2Y | 0.597 |
| chain 5 I2G | 1.04 |
| chain 5 I2E | 0.976 |
| chain 5 I2P | 0.794 |
| chain 5 I2V | 1.1 |
| chain 5 I2D | 0.912 |
| chain 5 I2M | 1.06 |
| chain 5 I2C | 1.04 |
| chain 5 I2N | 0.607 |
| chain 5 I2K | 0.743 |
| chain 5 I2Q | 0.713 |
| chain 5 I2F | 0.849 |
| chain 5 I2W | 0.749 |
| chain 5 I2H | 0.627 |
| chain 5 I2L | 1.08 |

| Variant | ratio to parent |
| --- | --- |
| chain 5 K7Q | 1.01 |
| chain 5 K7A | 0.91 |
| chain 5 K7M | 0.848 |
| chain 5 K7R | 1.09 |
| chain 5 K7D | 0.979 |
| chain 5 K7P | 1.17 |
| chain 5 K7G | 0.924 |
| chain 5 K7H | 1.18 |
| chain 5 K7I | 0.847 |
| chain 5 K7C | 0.781 |
| chain 5 K7W | 0.776 |
| chain 5 K7F | 0.632 |
| chain 5 K7N | 0.903 |
| chain 5 K7T | 0.905 |
| chain 5 K7V | 0.771 |
| chain 5 K7L | 0.832 |
| chain 5 K7S | 0.912 |
| chain 5 K7E | 0.559 |
| chain 5 K7Y | 1.04 |
| chain 5 I3N | 0.755 |
| chain 5 I3A | 0.883 |
| chain 5 I3R | 0.301 |
| chain 5 I3M | 0.842 |
| chain 5 I3T | 0.716 |
| chain 5 I3V | 1.06 |

| Variant | ratio to parent |
| --- | --- |
| chain 5 I3H | 0.33 |
| chain 5 I3G | 0.473 |
| chain 5 I3Y | 0.00742 |
| chain 5 I3L | 0.889 |
| chain 5 I3S | 0.592 |
| chain 5 I3Q | 0.605 |
| chain 5 I3C | 0.777 |
| chain 5 I3E | 0.864 |
| chain 5 I3F | 0.0814 |
| chain 5 I3W | 0.744 |
| chain 5 I3K | 0.521 |
| chain 5 I3P | 0.865 |
| chain 5 I3D | 0.172 |
| chain 5 E6M | 0.219 |
| chain 5 E6R | 0.00877 |
| chain 5 E6A | 0.0174 |
| chain 5 E6F | 0.153 |
| chain 5 E6D | 0.371 |
| chain 5 E6Q | 0.187 |
| chain 5 E6L | 0.0059 |
| chain 5 E6H | 0.0978 |
| chain 5 E6C | 0.00912 |
| chain 5 E6G | 0.187 |
| chain 5 E6P | 0.00132 |
| chain 5 E6W | 0.117 |

| Variant | ratio to parent |
| --- | --- |
| chain 5 E6T | 0.0356 |
| chain 5 E6K | 0.608 |
| chain 5 E6V | 0.00707 |
| chain 5 E6N | 0.0535 |
| chain 5 E6I | 0.0059 |
| chain 5 E6S | 0.0513 |
| chain 5 E6Y | 0.106 |
| chain 5 L8P | 1.07 |
| chain 5 L8W | 0.828 |
| chain 5 L8I | 1.02 |
| chain 5 L8E | 0.883 |
| chain 5 L8V | 0.83 |
| chain 5 L8N | 0.861 |
| chain 5 L8F | 0.952 |
| chain 5 L8S | 0.941 |
| chain 5 L8M | 1.03 |
| chain 5 L8G | 0.994 |
| chain 5 L8C | 0.85 |
| chain 5 L8H | 1.01 |
| chain 5 L8T | 0.968 |
| chain 5 L8Q | 1.07 |
| chain 5 L8D | 0.834 |
| chain 5 L8Y | 1 |
| chain 5 L8R | 0.935 |
| chain 5 L8A | 1.01 |
